Holding throughout (test): yeast two-hybrid; prey clone found with the bait of the row
Test [1] concerns the target T1, p38 gamma amino acids 29-368 (bait) (UniProt P53778 29-367).
T1 construct: range 29-368; also called Protein Kinase p38 gamma; p38 gamma kinase
T1 sequence (looked up): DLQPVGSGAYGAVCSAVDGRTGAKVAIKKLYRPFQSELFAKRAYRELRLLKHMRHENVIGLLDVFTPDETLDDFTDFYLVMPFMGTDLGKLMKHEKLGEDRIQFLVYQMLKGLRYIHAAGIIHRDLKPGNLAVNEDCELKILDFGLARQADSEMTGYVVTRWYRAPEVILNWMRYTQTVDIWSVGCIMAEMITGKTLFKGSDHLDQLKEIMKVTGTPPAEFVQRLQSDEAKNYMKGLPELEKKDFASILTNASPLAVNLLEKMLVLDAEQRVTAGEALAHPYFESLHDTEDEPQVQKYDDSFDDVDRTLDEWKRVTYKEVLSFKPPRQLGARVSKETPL
An excerpt:
(§1) A total human brain (person) cDNA library cloned into the yeast expression vector pACT2 was purchased from Clontech (human brain […] cDNA, cat. # HL4004AH), transformed into the yeast strain J692 (genotype of this strain: Mat a, ade2, his3, leu2, trp1, URA3::GAL1-lacZ LYS2::GAL1-HIS3 ga14del ga180del cyhR2), and selected for the ability to drive leucine synthesis. In these yeast cells, each cDNA is expressed as a fusion protein with the transcription activation domain of the transcription factor Ga14 (amino acids 768 to 881) and a 9 amino acid hemagglutinin epitope tag. J693 cells (Mat α type) expressing the bait were then mated with J692 cells (Mat a type) expressing proteins from the brain library. The resulting diploid yeast cells expressing proteins interacting with the bait protein were selected for the ability to synthesize tryptophan, leucine, histidine, and β-galactosidase. DNA was prepared from each clone, transformed by electroporation into E. coli strain KC8 (Clontech KC8 electrocompetent cells, cat. # C2023-1), and the cells were selected on ampicillin-containing plates in the absence of either tryptophane (selection for the bait plasmid) or leucine (selection for the brain library plasmid). DNA for both plasmids was prepared and sequenced by di-deoxynucleotide chain termination method. The identity of the bait cDNA insert was confirmed and the cDNA insert from the brain library plasmid was identified using BLAST program against public nucleotides and protein databases. Plasmids from the brain library (preys) were then individually transformed into yeast cells together with a plasmid driving the synthesis of lamin fused to the Ga14 DNA binding domain. Clones that gave a positive signal after β-galactosidase assay were considered false-positives and discarded. Plasmids for the remaining clones were transformed into yeast cells together with plasmid for the original bait. Clones that gave a positive signal after β-galactosidase assay were considered true positives.
(§2) The “AA” refers to the amino acids of the bait or prey. The “NUC” refers to the nucleotides of the bait or prey.

Test [2] deals with T2, MAPKAP-K3 NUC 433-1003 (bait) (UniProt Q16644 114-304).
T2 construct: range 114-304; also called MAP Kinase MAPKAP-K3
From the text: as §1, §2

Test [3] deals with T3, PRAK NUC 201-1104 (bait, no mutation) (UniProt Q8IW41 1-301).
T3 construct: Limits printed as nucleotides only; also called Protein Kinase PRAK
T3 sequence (looked up): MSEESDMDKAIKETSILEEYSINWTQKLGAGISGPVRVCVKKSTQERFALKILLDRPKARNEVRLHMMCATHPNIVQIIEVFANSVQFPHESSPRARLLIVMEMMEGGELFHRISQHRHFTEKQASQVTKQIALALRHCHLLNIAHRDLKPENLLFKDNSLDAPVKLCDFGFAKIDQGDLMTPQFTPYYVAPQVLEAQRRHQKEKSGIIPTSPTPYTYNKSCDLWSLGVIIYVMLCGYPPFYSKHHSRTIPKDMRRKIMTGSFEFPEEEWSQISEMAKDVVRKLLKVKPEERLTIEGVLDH
From the text: as §1, §2

Test [4] has as its target T4, PRAK NUC 201-1104 K51M (bait) (UniProt Q8IW41 1-301).
T4 construct: Limits printed as nucleotides only; also called Protein Kinase PRAK
T4 sequence (looked up): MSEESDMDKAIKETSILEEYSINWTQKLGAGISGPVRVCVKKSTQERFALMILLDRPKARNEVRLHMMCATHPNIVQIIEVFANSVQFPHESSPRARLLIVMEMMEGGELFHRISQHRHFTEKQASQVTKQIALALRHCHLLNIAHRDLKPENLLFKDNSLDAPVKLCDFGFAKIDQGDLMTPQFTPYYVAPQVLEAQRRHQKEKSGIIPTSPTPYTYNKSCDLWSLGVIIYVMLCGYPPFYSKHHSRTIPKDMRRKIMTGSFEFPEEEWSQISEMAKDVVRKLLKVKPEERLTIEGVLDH
From the text: as §1, §2

Test [5] has as its target T5, PRAK NUC 201-1104 K51M, T182D (bait) (UniProt Q8IW41 1-301).
T5 construct: Limits printed as nucleotides only; also called Protein Kinase PRAK
T5 sequence (looked up): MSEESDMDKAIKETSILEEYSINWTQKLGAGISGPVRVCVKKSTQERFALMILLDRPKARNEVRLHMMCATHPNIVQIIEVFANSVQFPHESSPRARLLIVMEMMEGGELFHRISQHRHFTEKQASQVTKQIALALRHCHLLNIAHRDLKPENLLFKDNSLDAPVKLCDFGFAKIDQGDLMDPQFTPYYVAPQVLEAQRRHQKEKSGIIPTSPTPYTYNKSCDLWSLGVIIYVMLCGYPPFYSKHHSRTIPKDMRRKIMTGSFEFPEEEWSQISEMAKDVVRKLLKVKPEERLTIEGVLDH
From the text: as §1, §2

The target in test [6] is T6, Profilin II amino acids 4-91 (prey) (human, UniProt P35080 4-91).
T6 construct: range 4-91
T6 sequence (looked up): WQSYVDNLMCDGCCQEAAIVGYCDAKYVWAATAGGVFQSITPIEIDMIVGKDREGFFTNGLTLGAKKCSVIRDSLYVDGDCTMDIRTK
From the text: as §1, §2

T2 sequence (Q16644 114-304 limits assumed): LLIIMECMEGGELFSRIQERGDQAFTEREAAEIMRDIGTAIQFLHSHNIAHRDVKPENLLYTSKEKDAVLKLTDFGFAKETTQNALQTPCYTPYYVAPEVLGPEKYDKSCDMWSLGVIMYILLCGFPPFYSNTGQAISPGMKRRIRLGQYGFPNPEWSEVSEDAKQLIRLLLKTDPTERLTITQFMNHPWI

B1: DLG2 amino acids 294-594 (prey) (other, human, UniProt Q15700 294-594, looked up)
chain: THSYSPPMENHLLSGNNGTLEYKTSLPPISPGRYSPIPKHMLVDDDYTRPPEPVYSTVNKLCDKPASPRHYSPVECDKSFLLSAPYSHYHLGLLPDSEMTSHSQHSTATRQPSMTLQRAVSLEGEPRKVVLHKGSTGLGFNIVGGEDGEGIFVSFILAGGPADLSGELQRGDQILSVNGIDLRGASHEQAAAALKGAGQTVTIIAQYQPEDYARFEAKIHDLREQMMNHSMSSGSGSLRTNQKRSLYVRAMFDYDKSKDSGLPSQGLSFKYGDILHVINASDDEWWQARRVMLEGDSEEMG
notes: range 294-594; also called chapsyn-110
With B1, the binding result in test [1] is “binds”.

B2: Homer-3 NUC 720-1152 (prey) (other, human, UniProt Q9NSC5 210-354, looked up)
chain: AAQWRQQLEAQRAEAERLRQRVAELEAQAASEVTPTGEKEGLGQGQSLEQLEALVQTKDQEIQTLKSQTGGPREALEAAEREETQQKVQDLETRNAELEHQLRAMERSLEEARAERERARAEVGRAAQLLDVSLFELSELREGLA
Take B2: in test [2], the binding result is “binds”.

B3: Vimentin amino acids 309-463 (prey) (other, human, UniProt P08670 309-463, looked up)
chain: LRQAKQESTEYRRQVQSLTCEVDALKGTNESLERQMREMEENFAVEAANYQDTIGRLQDEIQNMKEEMARHLREYQDLLNVKMALDIEIATYRKLLEGEESRISLPLPNFSSLNLRETNLDSLPLVDTHSKRTLLIKTVETRDGQVINETSQHHD
notes: range 309-463
Consider B3, for which the binding result in test [2] was “binds”.

B4: MLK2 amino acids 398-556 (prey) (enzyme, human, UniProt Q02779 398-556, looked up)
chain: LRSREEELLRAAQEQRFQEEQLRRREQELAEREMDIVERELHLLMCQLSQEKPRVRKRKGNFKRSRLLKLREGGSHISLPSGFEHKITVQASPTLDKRKGSDGASPPASPSIIPRLRAIRLTPVDCGGSSSGSSSGGSGTWSRGGPPKKEELVGGKKKG
notes: range 398-556; also called mixed lineage kinase
As for B4, the binding result in test [3] and in test [4] was “binds” throughout.

B5: Nuclear Mitotic Apparatus Protein 1 (NuMA1) NUC 1395-1713 (prey) (other, human, UniProt Q14980 413-519, looked up)
chain: LQLETLKQEAATLAANNTQLQARVEMLETERGQQEAKLLAERGHFEEEKQQLSSLITDLQSSISNLSQAKEELEQASQAHGARLTAQVASLTSELTTLNATIQQQDQ
notes: range 413-519
In the case of B5, the binding result in test [2] is listed as “binds”.

B6: Nuclear Mitotic Apparatus Protein 1 (NuMA1) NUC 1394-1711 (prey) (other, human, UniProt Q14980 413-519, looked up)
chain: LQLETLKQEAATLAANNTQLQARVEMLETERGQQEAKLLAERGHFEEEKQQLSSLITDLQSSISNLSQAKEELEQASQAHGARLTAQVASLTSELTTLNATIQQQDQ
notes: Limits printed as nucleotides only
Turning to B6, the binding result in test [5] is reported as “binds”.

B7: Homer-3 NUC 774-1152 (prey) (other, human, UniProt Q9NSC5 228-354, looked up)
chain: RQRVAELEAQAASEVTPTGEKEGLGQGQSLEQLEALVQTKDQEIQTLKSQTGGPREALEAAEREETQQKVQDLETRNAELEHQLRAMERSLEEARAERERARAEVGRAAQLLDVSLFELSELREGLA
notes: as for B6
On to B7, for which the binding result in test [5] was “binds”.

B8: Histone Acetyl Transferase 1 (HAT1) amino acids 334-420 (prey) (enzyme, human, UniProt O14929 334-419, looked up)
chain: ILRLLVTDMSDAEQYRSYRLDIKRRLISPYKKKQRDLAKMRKCLRPEELTNQMNQIEISMQHEQLEESFQELVEDYRRVIERLAQE
notes: range 334-420
Regarding B8, the binding result in test [5] is “binds”.

B9: ERF-2 amino acids 7-192 (prey) (other, human, UniProt P47974 7-192, looked up)
chain: SAFYDVDFLCKTEKSLANLNLNNMLDKKAVGTPVAAAPSSGFAPGFLRRHSASNLHALAHPAPSPGSCSPKFPGAANGSSCGSAAAGGPTSYGTLKEPSGGGGTALLNKENKFRDRSFSENGDRSQHLLHLQQQQKGGGGSQINSTRYKTELCRPFEESGTCKYGEKCQFAHGFHELRSLTRHPKY
notes: range 7-192; also called TIS11D
In the case of B9, in test [2], the binding result is given as “binds”. MMEDDGQPRTLYVGNLSRDVTEVLILQLFSQIGPCKSCKMITEHTSND (other) [TIAR amino acids 1-48 (bait)]: the binding result in test [6] is listed as “binds”.

These data come from patent publication US20020102606A1 (published 2002).
